Reference: the supplement of paper PMC12042874
± gives the uncertainty stated by the source.

Test: amyloid nucleation score (Sup35N fusion, yeast selection) (log enrichment); library NNK3; higher = more nucleation; inactive = no reads after selection
Summary of the method: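 After 24 hours of induction with 100 μM copper sulfate, psi-negative yeast expressing peptides of 20 random codons fused to Sup35N were grown for 7 days at 30°C on medium lacking adenine and uracil. Input and output plasmid inserts were sequenced with Illumina, and sequences with under 100 input reads were discarded. Scores for nucleation are the DiMSum log enrichment of output over input reads, centred on the mode score of non-aggregating sequences.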

Substance	amyloid nucleation score
YKKVLLDSFYSDTWSSQGSR	inactive
YKLERTRPDSFMVCERINGH	inactive
YKLICMSSRWTFLSSRQGEF	inactive
YKLRVNSVETNCTEILTLVE	inactive
YKWARYVFTTDNYFWVPAGY	inactive
YKYGPARCRKRGDSCAKGGG	inactive
YKYVFHPIFFDQGT	inactive
YLCFLSKMVSYSISYQWSRQ	inactive
YLDYSFREFCRMNQ	inactive
YLEEARQYNLQRYWKDLKVL	inactive
YLFLVRSQTLRVRYWTRNPP	inactive
YLGIFWRFFLRFSRGVTVWL	-0.488 ± 0.96
YLIAIG	inactive
YLIEYTSSNKPMAPLSDDTQ	inactive
YLINPVEVD	inactive
YLISNVFIVLSVDLCDVLGL	2.44 ± 0.072
YLLSMSENMRLALIECVAV	inactive
YLLSVYLLVATSCMYGNMGE	inactive
YLLVLMVERF	inactive
YLMVSVNFFSYVLSESRMCG	0.85 ± 0.12
YLNISGWSYFNCTRSWLLNR	inactive
YLNNWMSWRRSLRRHIEVVR	inactive
YLRHIVFNRQDYMSTRLCKH	inactive
YLRVQDLWWNKFENARHSSI	inactive

Substance	amyloid nucleation score
YLSASYIVYFIITEYYSYIF	inactive
YLSGSDIGFGYERCKIDSGV	inactive
YLSICVMFLVASRVRSISSI	inactive
YLSINTAEYHFQEQVLVFVY	inactive
YLSSSYVVGDMSCV	inactive
YLSTL	inactive
YLTEWDLGNVWRNPSAATPM	inactive
YLVAKDVSCNWVVTDGRLCH	inactive
YLVMRSKYLYRFYAMVLKDL	inactive
YLVQNFKT	-0.401 ± 0.6
YLVSLRLVYSNILEFVKRVC	inactive
YLVSY	inactive
YLVVHW	inactive
YLYRNRS	inactive
YMLLCPRPRGRSLRINNNDE	inactive
YMLLVSGFA	inactive
YMLTEFYLFPDRILRHRRTD	inactive
YMPFYDSCVRHAYRSSFR	0.038 ± 0.43
YMVHDHFKSNFRMCGCGYFN	inactive
YNANFFWYLADGIFDA	inactive
YNAYLKENLILLYLCRSSRE	2.17 ± 0.063
YNCGHLNYGIVNFLFYVWLI	inactive
YNFVPVFHVNMSVFLCILVL	2.43 ± 0.072
YNMNVFAGGCAMCMWISRLF	2.61 ± 0.074

Substance	amyloid nucleation score
YNRKWDMQY	inactive
YPFLSIGLYQCRS	inactive
YPLFECSDAPSQDNDTMLTR	inactive
YPLLEPSRVLVVCDGKGGVP	inactive
YPLNLYYQAFYSLIGLVIPP	inactive
YPLRSGF	inactive
YPLYVHRCLIMTFMLSLWPR	inactive
YQERL	inactive
YQGYRFNC	inactive
YQIMDPNRLAFVTDMLSRDL	inactive
YQNILLAYYDWVVLYQ	inactive
YQRYGRGFLRVSSFSLDSRM	-0.352 ± 0.81
YRAYVYEDTFWWAWYQFILL	inactive
YRDCISEGLKLSNWNELLGK	inactive
YRDFDEDCVIL	inactive
YRDRIGWQVVISII	-0.087 ± 0.27
YREVYLNRRLERL	inactive
YRKWGCWHRTFRLIYCTVVL	inactive
YRLPHS	inactive
YRPWHDIRTICCSTSSSTIE	2.5 ± 0.063
YRRAWRTIILKCTCLNQHV	0.2 ± 0.42
YRVVC	-0.543 ± 1.5
YRWSPWYNYCSSWTWCQMST	1.51 ± 0.13
YSANDLPVNAHGEILKVGLL	inactive

Substance	amyloid nucleation score
YSCGFDLAAWAFTDVIRRRI	inactive
YSCLLIYVKYGMASIYGRMF	inactive
YSCSYNTSTN	-0.52 ± 0.68
YSDKDSLGSGNSFFSFSEKW	inactive
YSEFPPTSKQ	inactive
YSEYMVTNRKVSAGHTARWD	inactive
YSFSNVLVLGSTGPGTSSQA	inactive
YSFVAVSSFDREHSRIFGVS	inactive
YSFWIVFMRY	inactive
YSGFSYVRGLYGSGYVMAQP	-0.192 ± 0.52
YSGIAS	inactive
YSGWTPKLAVH	inactive
YSIDMHVNVHGTYYLMSKWV	1.73 ± 0.12
YSISKAFPMLSRLDMDMFGA	inactive
YSKRAHVFYES	-0.06 ± 0.36
YSKSLCVFKSICIELDF	2.08 ± 0.062
YSLRNNFLLVFSLVSDRPIG	1.06 ± 0.12
YSNLLAYWIQISKWIATGRC	inactive
YSNWLTSRNYTNLLLL	inactive
YSPTAN	inactive
YSSFAANSCFLERVEVKSDL	inactive
YSSGGYLTRVRRKGSMYRAL	inactive
YSTMLLVHYMFLKIE	inactive
YSVTAHPLDHTNPRGNYPDH	inactive

Substance	amyloid nucleation score
YSYNQIWFLLV	inactive
YTALL	inactive
YTNALPAITFVVIGHLAIQ	2.64 ± 0.068
YTSGRSVSGRCHLWELKAIK	inactive
YTWLAFRFSTSLHPRYSNIG	inactive
YVAVGKKLNHRSSSSLSRFF	inactive
YVFFIVMASSCWHVHSYNYF	-0.437 ± 0.98
YVLELGAGGPKNMIHDMNAD	inactive
YVLFCCCPLMDFITDLSLST	2.1 ± 0.055
YVLQTFEGSCVLKRLHIRFM	inactive
YVSLVSLCMCIRLQGEFLYG	1.24 ± 0.089
YVSQQYCWPGFFHRVHTGKS	inactive
YVSRDVGNRNATSY	inactive
YVWASIFFFTSYDEVVGRHV	1.46 ± 0.13
YWASARTRSGYFDVNKFSGG	inactive
YWDDWLNSTGRDPSHKPRRT	1.95 ± 0.07
YWIEAPIFYPLFTAIVKQAM	0.294 ± 0.49
YWKRAGPQFGVPDSWTPSGP	inactive
YWLDLYSKCLSSSVEISLGI	inactive
YWLMKALQIWHSENRFRYIE	inactive
YWNIFGVVSN	inactive
